Measured values reported in patent US20130309248A1.
Positions count from the first letter of the chain named. Like-named read-outs stand apart in the source and are kept apart here.

B1: CR8001 (antibody, V domains shown)
VH: EVQLVESGGGLIQPGGSLRLSCAASGFTVSSNYVSWVRQAPGKGLEWLSLIYTGGTTYYADSVKGRFTISRDNSKNTVFLQMNSLRAEDAAMYYCARVSALRFLQWPNYAMDV
VL: QSALTQPASVSGSPGRSITISCSGTRSDVGGHNYVSWYQQHPGKAPKLMIYEVSHRPSGVSNRFSGSKSGSTASLTISGLQSEDEADYYCSSYTGEGPLGV
B2: CR8018 (antibody, V domains shown)
VH: EVQLVETGGDLVQPGGSLRLSCSASEFSFSSYWMSWVRQAPGKGLEWVANMKQDGSEKYYVDSVKGRFTISRDNAKNSLYLQMNSLRGEDTAVYYCARGSCDDSWTGCHDAFDI
VL: B1 VL with R16Q, S23T, R26S, H32Y
B3: CR8041 (antibody, V domains shown)
VH: QVQLVQSGAEVKKPGASVKVSCQASGYTFTSFGLSWVRQAPGQGPEWMGWISAYNGEIKYAQKFQGRVSMTTDTSTRTAYMEVRSLRPDDTAVYYCAREPPLYFSSWSLDF
VL: EIVLTQSPGTLSLSPGERATLSCRASQSVSSNYLAWFQQKPGQAPRLLIYGASRRATGIPDRFSGSGSGTDFTLTISRLEPEDFAVYYCQQYDSSPRT
B4: CR8003 (antibody, V domains shown)
VH: B2 VH
VL: VLTQPPSVSVAPGQTARIACGGNNIGSKSVHWYQQKPGQAPVLVVYDDSARPSGIPERFSGSNSGNTATLTISRVEAGDEADYYCQVWESGSDLRLL
B5: CR8016 (antibody, V domains shown)
VH: B2 VH with T7S
VL: QSVVTQPPSVSGAPGQRVTISCTGSSSNIGAGYDVHWYQQLPGTAPKLLIYGNNNRPSGVPDRFSGSRSGPLALLAITGLQAEDEADYYCQSYDSSLSVYV
B6: CR8017 (antibody, V domains shown)
VH: B2 VH
VL: SSELTQDPAVSVALGQTVRITCQGDSLRSYYASWYQQKPGQAPVLVIYAKTNRPSGIPDRFSGSTSGNTASLTITGAQAEDEADYYCNSRDSSGNHVV
B7: CR8015 (antibody, V domains shown)
VH: B2 VH with E1Q, V5Q, T7S
VL: VLTQPPSVSVAPGQTAKITCGGDNIGRKSVHWYQQKPGLAPVLVVNDNSDRPSGIPARFSGSNSGNTATLTISRVEAGDEADYYCHVWGSSRDHYV
B8: CR8039 (antibody, V domains shown)
VH: QLQLQESGPGLVKPSETLSLTCTVSGGSIGSYYWSWIRQPPGKGLEWIGYIYYRGGTSYNPSLKSRVTISVDTSKSQFTLKLNSVTAADTAVYYCARKDWGSAAGSVWYFDL
VL: QSALTQPPSASGSPGQSVTISCTGTSSDVGGYNYVSWYQQHPGKAPKLMIREVSKRPSGVPDRFSGSKSGNTASLTVSGLQAEDEAEYYCSSYAGSNNLI
B9: CR8049 (antibody, V domains shown)
VH: QVTLKESGPVLVKPKETLTLTCTVSGFSLSNTRMGVSWIRQPPGKALEWLAHIFSNDETSYRTSLKRRLTISQDISKSQVVLSMTNVDPADTATYFCARIGSGYESSAYSTWLDP
VL: QVQLQQWGAGLLKPSETLSLTCAVYGGSFTDHYWSWIRQSPGKGLEWIGEVVHSGDTNYTPSLRNRVSISVDSSKNQFSLRLGSVTAADTAVYYCARGRNVAVVGAIQRHYDY
B10: CR8052 (antibody, V domains shown)
VH: DIQLTQSPSSLSASVGDRVTITCRASQGINTYLNWYQQKPGKAPKVLIFAASTLQSGVPSRFSGSGSGTEFTLNINNLQPEDFATYYCQQSYSTAIT
VL: EVQLVESGGGVVQPGRSLRLSCAASGFSFTTYGMHWVRQAPGKGLEWVAFIWYDGSNKHYQDSVKGRFTISKDNSNNMLYLQMDSLRVADTAVYYCVRDGGYSTWEWYFDL

How the values were obtained:
[1] = target: 3 H1N1 strains (1999-2007); experiment: cell-based or functional assay
[2] = target: HA of virus A/Brisbane/59/2007 (H1N1) (influenza A virus (H1N1)); experiment: cell-based or functional assay
[3] = target: HA of virus A/Chick/Germany/N/49 (H10) (influenza A virus (H10)); experiment: cell-based or functional assay
[4] = target: HA of virus A/Hiroshima/52/2005 (H3N2) (influenza A virus (H3N2)); experiment: cell-based or functional assay
[5] = target: HA of virus A/Johannesburg/33/94 (H3N2) (influenza A virus (H3N2)); experiment: cell-based or functional assay
[6] = target: HA of virus A/Mallard/Netherlands/12/2000 (H7N3) (influenza A virus (H7N3)); experiment: cell-based or functional assay
[7] = target: HA of virus A/New Caledonia/20/1999 (H1N1) (influenza A virus (H1N1)); experiment: cell-based or functional assay
[8] = target: HA of virus A/Panama/2000/1999 (H3N2) (influenza A virus (H3N2)); experiment: cell-based or functional assay
[9] = target: HA of virus A/Solomon Islands/IVR-145 (H1N1) (influenza A virus (H1N1)); experiment: cell-based or functional assay
[10] = target: HA of virus A/Wisconsin/67/2005 (H3N2) (influenza A virus (H3N2)); experiment: cell-based or functional assay
[11] = target: full-length recombinant H1 HA (A/New Caledonia/20/1999) on PER.C6 cells (influenza A virus (H1N1)); experiment: FACS, IgG 5 µg/ml, HA-expressing PER.C6 cells; untransfected MFI 4
[12] = target: full-length recombinant H3 HA (A/Wisconsin/67/2005) on PER.C6 cells (influenza A virus (H3N2)); experiment: as above
[13] = target: full-length recombinant H7 HA (A/Netherlands/219/2003) on PER.C6 cells (influenza A virus (H7N7)); experiment: as above
[14] = target: full-length recombinant H1 HA (A/New Caledonia/20/1999) on PER.C6 cells (influenza A virus (H1N1)); experiment: FACS, IgG 5 µg/ml, HA-expressing PER.C6 cells; untransfected MFI 3
[15] = target: full-length recombinant H3 HA (A/Wisconsin/67/2005) on PER.C6 cells (influenza A virus (H3N2)); experiment: as above
[16] = target: full-length recombinant H7 HA (A/Netherlands/219/2003) on PER.C6 cells (influenza A virus (H7N7)); experiment: as above
[17] = target: 3 H1N1 strains (1999-2007); experiment: cell-based or functional assay; remark: listed apart in the source

Row | Binder | Neutralization titer SK50 [2] | Neutralization titer SK50 [3] | Neutralization titer SK50 [4] | Neutralization titer SK50 [5] | Neutralization titer SK50 [6] | Neutralization titer SK50 [7] | Neutralization titer SK50 [8] | Neutralization titer SK50 [9] | Neutralization titer SK50 [10] | MFI [11] | MFI [12] | MFI [13] | MFI [14] | MFI [15] | MFI [16] | other results
1 | B1 | > 40 µg/mL | > 40 µg/mL | 13 µg/mL | 6.51 µg/mL | > 40 µg/mL | > 40 µg/mL | > 40 µg/mL | > 40 µg/mL | 11.9 µg/mL | 100 MFI | 763 MFI | 106 MFI |  |  |  | SK50 titer [1]: > 40 µg/mL; SK50 titer [3]: > 40 µg/mL; SK50 titer [4]: 13 µg/mL; SK50 titer [5]: 6.5 µg/mL; SK50 titer [6]: > 40 µg/mL; SK50 titer [8]: > 40 µg/mL; SK50 titer [10]: 11.9 µg/mL
2 | B2 | > 40 µg/mL | > 40 µg/mL | 8.45 µg/mL | > 40 µg/mL | > 40 µg/mL | > 40 µg/mL | > 40 µg/mL | > 40 µg/mL | 6.03 µg/mL |  |  |  | 3 MFI | 348 MFI | 4 MFI | 
3 | B3 |  |  |  |  |  |  |  |  |  | 4 MFI | 364 MFI | 120 MFI |  |  |  | SK50 titer [17]: > 40 µg/mL
4 | B4 | > 40 µg/mL | > 40 µg/mL | 4.27 µg/mL | > 40 µg/mL | > 40 µg/mL | > 40 µg/mL | > 40 µg/mL | > 40 µg/mL | 5.31 µg/mL |  |  |  | 3 MFI | 657 MFI | 5 MFI | 
5 | B5 | > 40 µg/mL | > 40 µg/mL | 8.84 µg/mL | > 40 µg/mL | > 40 µg/mL | > 40 µg/mL | 28.3 µg/mL | > 40 µg/mL | 1.77 µg/mL |  |  |  | 3 MFI | 840 MFI | 5 MFI | 
6 | B6 | > 40 µg/mL | > 40 µg/mL | 13.6 µg/mL | > 40 µg/mL | > 40 µg/mL | > 40 µg/mL | > 40 µg/mL | > 40 µg/mL | 2.82 µg/mL |  |  |  | 3 MFI | 558 MFI | 4 MFI | 
7 | B7 | > 40 µg/mL | > 40 µg/mL | 28.3 µg/mL | > 40 µg/mL | > 40 µg/mL | > 40 µg/mL | > 40 µg/mL | > 40 µg/mL | 23.8 µg/mL |  |  |  | 4 MFI | 600 MFI | 4 MFI | 
8 | B8 | > 40 µg/mL | > 40 µg/mL | 3.26 µg/mL | 1.33 µg/mL | > 40 µg/mL | > 40 µg/mL | 4.6 µg/mL | > 40 µg/mL | 1.8 µg/mL | 4 MFI | 503 MFI | 4 MFI |  |  |  | 
9 | B9 | > 40 µg/mL | > 40 µg/mL | 3.54 µg/mL | > 40 µg/mL | > 40 µg/mL | > 40 µg/mL | > 40 µg/mL | > 40 µg/mL | 3.26 µg/mL |  |  |  | 3 MFI | 542 MFI | 4 MFI | 
10 | B10 | > 40 µg/mL | > 40 µg/mL | > 40 µg/mL | > 40 µg/mL | > 40 µg/mL | > 40 µg/mL | 21.9 µg/mL | > 40 µg/mL | > 40 µg/mL | 4 MFI | 364 MFI | 5 MFI |  |  |  | 
